Laboratory results reported in patent US20160158359A1.
Values belong to the binder of their own block, whether it stands above or below them.

How the values were obtained:
[1] = target: HLA-A*03:01 recombinant MHC class I molecule (human); assay: REVEAL MHC-peptide complex stabilisation assay, recombinant HLA-A*03:01; settings: remark: other sources report otherwise
[2] = target: HLA-A*11:01 recombinant MHC class I molecule (human); assay: REVEAL MHC-peptide binding assay, stabilisation of ternary MHC-peptide complex, recombinant HLA; settings: remark: other sources report otherwise; scale: % of positive control peptide
[3] = target: HLA-B*08:01 recombinant MHC class I molecule (human); assay: as above; settings: remark: other sources report otherwise; scale: % of positive control peptide
[4] = target: recombinant HLA-A*02:01 MHC class I molecule (human); assay: REVEAL MHC-peptide binding assay, stabilisation of ternary complex with recombinant MHC; settings: remark: other sources report otherwise; scale: score, % of positive control peptide
[5] = target: recombinant HLA-A*03:01 MHC class I molecule (human); assay: as above; settings: remark: other sources report otherwise; scale: score, % of positive control peptide

In Vitro Score (% of positive control peptide) [1]: 7
Binder: IFWVQRGAK […]

In Vitro Score [2]: 34.6 | In Vitro Score [3]: 0.1
Binder: VAFIIFWVR

In Vitro Score [4]: 1.2 | In Vitro Score [5]: 0.7
Binder: VAFIIFWVR [… synthetic 9-mer peptide (overlapping reference peptide 1, K29R)]
